These results are taken from paper PMC4027978.

The nature of data set [1]: Number and Brightness. The following applies: other: Number and Brightness (N&B) analysis.
Data set [2] deals with GFP-FR (Folate Receptor), GPI-anchored, in MDCK cells. As to the kind of experiment: Number and Brightness.
Data set [3] addresses GFP-FR, in CHO cells. As to the kind of experiment: Number and Brightness.

“GFP-FR (Folate Receptor), GPI-anchored, in MDCK cells”: in data set [1], the “percent of GFP-FR in aggregates of three-four molecules” value is “about 30-35% of GFP-FR”. For the same substance, the average B value (brightness) in data set [2] was 1.29.
In data set [3], GFP-FR, in CHO cells registered an average B value (brightness) of 1.36 and a percent of GFP-FR in clusters of 3 to 4 or 5 molecules of 50%.
